Patent US10969392B2, “Methods and systems for predicting response to immunotherapies for treatment of cancer” (Vanderbilt University, priority 2015, dated 2021)
“Also recorded” adds a separate entry of the source.

Columns and labels:
Format in all cases: cell-based, human
melanoma cell lines [1] = test: IFNγ stimulation of melanoma cell lines, Western blot and phospho-flow (STAT1, STAT5, CIITA)
Description: (§1) FIGS. 3A-F show characterization of MHC-II(+) melanoma cell lines. Melanoma cell lines were treated with IFNy for 24 h before collection and live-cell staining and flow cytometry analysis for (A) MHC-I (HLA-A/B/C), (B) MHC-II (HLA-DR), and (C) PD-L1. Bars represent mean ±S.E.M. for at least three experiments (D) Representative flow plots from (C). (E) Western blot analysis of melanoma cell lines after 24 or 48 h of IFNy stimulation. (F) Phosphorylation of STAT1 (top row) and STAT5 (bottom row) in melanoma cell lines at 15 min after IFNy stimulation. Histograms were coloured according to the arcsinh transformed ratio or MFI medians relative to the table minimum value.
Immunoblotting Immunoblotting was performed as previously described^32 Briefly, cells were washed in cold phosphate-buffered saline, collected and lysed in 1×RIPA buffer (50 mM Tris (pH 7.4), 1% NP-40, 150 mM NaCl, 1 mM EDTA, 0.1% SDS, 0.25% sodium deoxycholate, 5 mM NaF, 5 mM Na3VO4, 10% glycerol, […] phenylmethyl-sulphonylfluoride and protease inhibitors) for 30 min on ice. Lysates were sonicated for 2-3 s to shear DNA and cleared by centrifugation at 13,200 r.p.m. for 15 min. Protein concentrations of the lysates were determined by BCA assay (Bio-Rad, Hercules, Calif.). Samples were separated by SDS-PAGE and transferred to nitrocellulose membrane. Membranes were blocked with 5% non-fat dry milk or 5% bovine serum albumin in tris-buffered saline with 0.1% Tween-20 for 1 h at room temperature and then incubated overnight at 4° C. with the appropriate antibody as indicated. Following incubation with appropriate horseradish peroxidase-conjugated secondary antibodies, proteins were visualized using an enhanced chemiluminescence detection system. […]
Phospho-flow cytometry. […] Samples were analyzed on a LSRII system (BD Biosciences). […]

[2] = system: PDX tumors from melanoma patients PT1 and PT2; test: Ex vivo organotypic culture of PDX tumour slices with or without IFNγ, Western blot for HLA-DR; details: PT1 (anti-PD-1 non-responder) and PT2 (responder) PDX, 24-48 h
From the text: FIGS. 6A-D show Ex vivo culture of tumours derived from anti-PD-1-responding and non-responding patients identifies heterogeneity in interferon response. (A) Patient tumour blocks stained for HLA-DR (brown) and SOX10 (pink) at low (scale bar, 500 um) and high magnification (scale bar, […]); PT1: anti-PD-1 non-responder and PT2: anti-PD-1 responder. (B) Experimental schema. (C) Schema and images of PDX tissue sections (ex vivo organotypic culture). (D) Western blot analysis of tissue sections cultured in the presence or absence of IFNy for 24-48 h.
To test this hypothesis, patient-derived xenograft (PDX) models were utilized from the tumor resections of two melanoma patients who subsequently received anti-PD1 therapy; patient 1 (PT1; non-responder, 0% HLA-DR-positive, class II/III) and patient 2 (PT2; partial responder, heterogeneous 15% HLA-DR-positive, class Ib) (FIG. 6A). […] The resected tumors from PT1 and PT2 were serially transplanted to athymic nu/nu mice, which are highly deficient in functional T cells, ruling out a possible source of IFNγ (FIG. 6B). […] Thus, HLA-DR may be a marker of IFNγ activity in the microenvironment of some (but not all) tumors.
Cell and tumor culture. SKMEL-28 and WM115 cell lines were obtained from Dr. Kimberly Dahlman (Vanderbilt University), CHL-1 and HMCB melanoma cell lines were obtained from the laboratory of William Pao (Vanderbilt University). […]

melanoma cell lines [3] = test: IFNγ stimulation of melanoma cell lines, flow cytometry for HLA-DR and PD-L1; details: for HLA-DR surface expression: 100 ng/mL; for HLA-DR expression by flow cytometry: Example 5
Description: as §1
FIGS. 4A-D show graphs illustrating mean expression levels of MHC-I, MHC-II, and PD-L1 at baseline and after IFNy stimulation. Melanoma cell lines were treated with 100 ng IFNy for 24 hr (shown as percentage positive in FIGS. 2A-C) prior to harvest and live-cell staining and flow cytometry analysis for (A) MHC-I/HLA-A/B/C, (B) MHC-II/HLA-DR, and (C) PD-L1. Bars represent mean fluorescence intensity ±SEM for 3 experiments. (D) Histograms of HLA-DR surface expression over an extended (24-72 hr) IFNy treatment, as assessed by flow cytometry.
Cell surface expression mirrored mRNA expression patterns; MHC-I (HLA-A/B/C) was expressed ubiquitously among all cell lines under both basal and stimulated conditions, while MHC-II (HLA-DR) was present only on the intermediate/Ib (SKMEL5 and SKMEL28) and high/Ia cell lines (WM115 and A375; FIGS. 3A-C and 4A-D). […] The high (Ia) WM115 cell line was essentially 100% positive for HLA-DR at both basal and stimulated conditions.
Standard Flow Cytometry. Flow cytometry was performed using the following antibodies: HLA-DR/PE-Cy7 (Biolegend, clone L243. 1:20). CD274/PD-L1/APC (Biolegend, clone 29E.2A3, 1:200) and HLA-A/B/C-Alexa Fluor488 (1:100, Biolegend, clone W6/32) mouse MHC-II (I-A/I-E 1:20 Biolegend, clone M5/114.15.2). DAPI was used as a viability dye. Samples were analyzed on an Aria III laser system (BD Biosciences)
Cell and tumor culture. SKMEL-28 and WM115 cell lines were obtained from Dr. Kimberly Dahlman (Vanderbilt University), CHL-1 and HMCB melanoma cell lines were obtained from the laboratory of William Pao (Vanderbilt University). Cell line nature was not directly authenticated, but protein marker expression was consistent with published HLA-DRA mRNA expression patterns (CCLE). Cell lines were confirmed mycoplasma-free and cultured in DMEM containing 10% FBS. Stimulation with recombinant human IFNγ (R&D Systems) was performed at 100 ng/mL. For PDX models and ex-vivo organotypic culture, tumors were freshly resected and sectioned using an Alto tissue matrix sectioner (Roboz Surgical, Gaithersburg, Md.).
Methods. MHC-I/II mRNA was profiled across 60 MEL cell lines. The transcriptional characteristics of MHC-II+ cell lines were analyzed by Gene Set Analysis. Cell surface expression of MHC-I and MHC-II was confirmed by flow cytometry (FC) in a subset of cell lines under basal and stimulated (IFNγ) conditions. In 26 tumor samples from αPD-1 treated MEL patients, immunohistochemistry (IHC) was performed for HLA-DR (MHC-II) or HLA-A (MHC-I), SOX10, CD4 and CD8. IHC results were correlated with response and progression-free survival (PFS).

B1: IFNγ: recombinant human IFNγ (R&D Systems) used at 100 ng/mL to stimulate melanoma cell lines and tumour slices (protein, UniProt P01579 24-161, looked up)
Interferon gamma: QDPYVKEAENLKKYFNAGHSDVADNGTLFLGILKNWKEESDRKIMQSQIVSFYFKLFKNFKDDQSIQKSVETIKEDMNVKFFNSNKKKRDDFEKLTNYSVTDLNVQRKAIHELIQVMAELSPAAKTGKRKRSQMLFRG
Melanoma cell lines [1]; Western blot, 24 or 48 h stimulation
  CIITA expression: only induced in HLA-DR+Ia/Ib cells
Melanoma cell lines [1]; all cell lines, Western blot 24 or 48 h, phospho-flow 15 min
  STAT1 activation: robustly activated
Melanoma cell lines [1]; phospho-flow, 15 min stimulation, 100 ng/mL
  STAT5 activation: preferentially activated by IFNγ in MHC-II(−) cell lines
[2]
  HLA-DR upregulation in cultured tissue slices: only the PT2 PDX model (anti-PD-1 responder) upregulated HLA-DR
Melanoma cell lines [3]; CHL-1 or HMCB cells, up to 72 hrs
  HLA-DR surface expression: No significant increase
Melanoma cell lines [3]; MHC-II+ (mRNA) cell lines
  HLA-DR expression by flow cytometry: constitutive and inducible
Melanoma cell lines [3]; MHC-II− cells
  HLA-DR expression by flow cytometry: did not express or induce
Melanoma cell lines [3]; SKMEL28 (intermediate/Ib), 25% positive at baseline, 24 h
  HLA-DR surface expression: potently induced
Melanoma cell lines [3]; all cell lines tested, 24 h stimulation
  PD-L1 expression: significantly upregulated; also recorded: potently induced
